Measurements reported in paper PMC3193277.

Biological target: 6xHis-p53 (UniProt P04637 1-393)
Experiment: EMSA

6xHis-p53, sequence (P04637 whole entry): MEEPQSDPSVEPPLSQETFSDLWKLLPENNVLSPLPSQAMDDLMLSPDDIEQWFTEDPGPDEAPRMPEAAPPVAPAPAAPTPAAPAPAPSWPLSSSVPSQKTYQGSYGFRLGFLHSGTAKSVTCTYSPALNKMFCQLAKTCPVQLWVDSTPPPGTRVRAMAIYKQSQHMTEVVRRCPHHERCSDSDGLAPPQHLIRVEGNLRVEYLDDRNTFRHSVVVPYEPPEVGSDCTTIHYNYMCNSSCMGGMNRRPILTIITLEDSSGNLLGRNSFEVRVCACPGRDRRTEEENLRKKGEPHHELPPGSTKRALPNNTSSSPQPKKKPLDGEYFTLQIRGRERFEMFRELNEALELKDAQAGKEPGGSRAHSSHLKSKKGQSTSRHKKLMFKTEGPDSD

B1: GADD45 probe (intron 3 p53RE) (dsDNA)
DNA 1: GTAGCTGATATCGAATTCTCGAGCAGAACATGTCTAAGCATGCTGGGCTCGAGAATTCCTGCAGCC
DNA 2: GGCTGCAGGAATTCTCGAGCCCAGCATGCTTAGACATGTTCTGCTCGAGAATTCGATATCAGCTAC
binding result: binds
